This is an account of results in publication PMC5718245.

The target of assay [1] is PSD95 PDZ3 (Rattus norvegicus) (UniProt P31016). The note with it: cited from earlier work.
Assay [2] addresses GST-PDZ3 fusion protein (PDZ3 domain of SAP97). The assay can be described thus: SPR; Biacore3000; anti-GST antibody immobilised, GST-PDZ3 captured (1200-1700 RU), GST on the reference cell subtracted; peptides as analytes at 62.5 nM to 12.8 µM, 30 µl/min; HBS (0.01 M HEPES, 0.15 M NaCl, 3 mM EDTA, 0.005% Surfactant P20); steady-state affinity fit, 1:1 model. For orientation: Surface plasmon resonance follows binding to a sensor surface in real time, without labels.

One may read the Kd as the constant that tells how readily two partners part at equilibrium.

Sequence of UniProt P31016 (P31016 310-396): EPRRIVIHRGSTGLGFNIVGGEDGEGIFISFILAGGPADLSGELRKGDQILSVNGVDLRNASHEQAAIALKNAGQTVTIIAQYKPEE

Turning to “CRIPT C-terminal 9 amino acids (from UniProt Q792Q4)”, in assay [1], the Kd was 1 µM. The molecule AMCGKKVLDTKNYKQTSV [peptide CHRK1 (C-terminal 18 amino acids of CRIPT)] gave a Kd in assay [2] of 6.57 µM.
